Results as given in paper PMC3478282, “Probing the Putative Active Site of YjdL: An Unusual Proton-Coupled Oligopeptide Transporter from E. coli” (PLoS ONE, 2012).
Residue numbers refer to the chain shown, from its start. Like-named read-outs stand apart in the source and are kept apart here. Residues, ends and D or L forms follow the SMILES beside them.

Assays:
[1] = target: YjdL Tyr25Phe (E. coli) (UniProt P39276)
[2] = target: YjdL from E. coli, wild type (E. coli) (UniProt P39276)
[3] = target: YjdL-Ala281Phe (E. coli) (UniProt P39276)
[4] = target: T1, WT-YjdL (Escherichia coli, UniProt P39276); assay: cell-based; format: cell-based, E. coli; settings: for IC50: IC50 (inhibition of β-Ala-Lys(AMCA) uptake), WT-YjdL a
T1 construct: expressed in transfected cells; host or cells: E. coli BL21(DE3)pLysS, pTTQ18-yjdL, IPTG-induced
T1 sequence (P39276 1-485): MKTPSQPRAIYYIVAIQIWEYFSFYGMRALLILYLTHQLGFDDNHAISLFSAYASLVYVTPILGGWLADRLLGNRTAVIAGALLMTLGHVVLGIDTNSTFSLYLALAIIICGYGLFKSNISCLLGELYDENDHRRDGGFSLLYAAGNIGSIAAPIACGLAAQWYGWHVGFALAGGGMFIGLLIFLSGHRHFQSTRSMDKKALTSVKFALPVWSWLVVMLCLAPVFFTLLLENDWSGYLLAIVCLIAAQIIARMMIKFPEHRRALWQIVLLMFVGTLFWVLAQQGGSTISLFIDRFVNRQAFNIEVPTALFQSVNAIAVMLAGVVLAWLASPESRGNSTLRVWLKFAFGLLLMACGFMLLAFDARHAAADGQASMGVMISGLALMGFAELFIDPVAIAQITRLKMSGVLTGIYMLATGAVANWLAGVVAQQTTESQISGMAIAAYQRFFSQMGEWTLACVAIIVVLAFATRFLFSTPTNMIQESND
Description: (§1) Plasmids were transformed into E. coli BL21(DE3)pLysS cells by heat shock and transformants were selected on agar plates containing 100 µg/mL ampicillin and 34 µg/mL chloramphenicol. Single transformants were inoculated into 2 mL LB-media with antibiotics as above and grown overnight. The cultures were diluted 1∶50 in 5 mL LB-media with antibiotics as above, and at an OD600 of 0.5–0.8 protein expression was induced by the addition of 1 mM isopropyl β-D-1-thiogalactopyranoside (IPTG). […]
(§2) Uptake assays were performed as previously described, [20]. In a final assay volume of 100 µL; 0.2 mM β-Ala-Lys-N-7-amino-4-methylcoumarin-3-acetic acid (β-Ala-Lys(AMCA), Biotrend) (10 µL) and various concentrations of ligands (purchased from Bachem or Sigma-Aldrich) or uptake buffer (50 µL) were incubated with bacterial cell suspension (OD600 = 10, 40 µL) at 37°C. After 5 min, the uptake was stopped by addition of 500 µL ice-cold uptake buffer followed by immediate centrifugation and washing twice in ice-cold uptake buffer. Finally the cell pellet was resuspended in 100 µL uptake buffer, and the uptake was quantified by fluorescence measurements (excitation at 340 nm and emission at 460 nm) on a Safire 2 fluorimeter. Non-specific uptake was measured as described above on IPTG-induced E. coli BL21(DE3)pLysS cells harboring the empty pTTQ18 vector. All uptake assay experiments were reproduced at least three times independently and data analyses were performed using GraphPad Prism ver. 5.

[5] = target: T2, YjdL Tyr25Phe (Escherichia coli, UniProt P39276, Y25F); assay: β-Ala-Lys(AMCA) uptake and inhibition assay, YjdL Tyr25Phe; format: cell-based, E. coli; settings: 0.2 mM β-Ala-Lys(AMCA), 5 min incubation, pH 6.5; ±SEM, n≥3
T2 construct: expressed in transfected cells; host or cells: E. coli BL21(DE3)pLysS, pTTQ18-yjdL mutant (QuikChange)
T2 sequence (P39276 1-485 Y25F): T1 sequence (P39276 1-485) with Y25F
Description: (§3) Plasmids were transformed into E. coli BL21(DE3)pLysS cells by heat shock and transformants were selected on agar plates containing 100 µg/mL ampicillin and 34 µg/mL chloramphenicol. Single transformants were inoculated into 2 mL LB-media with antibiotics as above and grown overnight. The cultures were diluted 1∶50 in 5 mL LB-media with antibiotics as above, and at an OD600 of 0.5–0.8 protein expression was induced by the addition of 1 mM isopropyl β-D-1-thiogalactopyranoside (IPTG). The cells were harvested after three hours of induction by centrifugation and resuspended in uptake buffer (50 mM MES pH 6.5, 140 mM NaCl, 5.4 mM KCl, 1.8 mM CaCl2, 0.8 mM MgSO4, and 5 mM glucose).
as §2

[6] = target: T3, YjdL Ala281Phe (Escherichia coli, UniProt P39276, A281F); assay: β-Ala-Lys(AMCA) uptake and inhibition assay, YjdL Ala281Phe; format: cell-based, E. coli; settings: for IC50: 0.2 mM β-Ala-Lys(AMCA), 5 min incubation, pH 6.5, ±SEM, n≥3
T3 construct: host or cells: E. coli BL21(DE3)pLysS
T3 sequence (P39276 1-485 A281F): T1 sequence (P39276 1-485) with A281F
Description: as §3, §2

[7] = target: T4, WT-YdgR (Escherichia coli, UniProt P77304); assay: cell-based; format: cell-based, E. coli; settings: 25 mM Tris-HCl, 50 mM MOPS pH 7.4, 0.2 mM β-Ala-Lys(AMCA), 5 min
T4 construct: expressed in transfected cells; host or cells: E. coli BL21(DE3)pLysS, pTTQ18-ydgR, IPTG-induced
T4 sequence (P77304 1-500): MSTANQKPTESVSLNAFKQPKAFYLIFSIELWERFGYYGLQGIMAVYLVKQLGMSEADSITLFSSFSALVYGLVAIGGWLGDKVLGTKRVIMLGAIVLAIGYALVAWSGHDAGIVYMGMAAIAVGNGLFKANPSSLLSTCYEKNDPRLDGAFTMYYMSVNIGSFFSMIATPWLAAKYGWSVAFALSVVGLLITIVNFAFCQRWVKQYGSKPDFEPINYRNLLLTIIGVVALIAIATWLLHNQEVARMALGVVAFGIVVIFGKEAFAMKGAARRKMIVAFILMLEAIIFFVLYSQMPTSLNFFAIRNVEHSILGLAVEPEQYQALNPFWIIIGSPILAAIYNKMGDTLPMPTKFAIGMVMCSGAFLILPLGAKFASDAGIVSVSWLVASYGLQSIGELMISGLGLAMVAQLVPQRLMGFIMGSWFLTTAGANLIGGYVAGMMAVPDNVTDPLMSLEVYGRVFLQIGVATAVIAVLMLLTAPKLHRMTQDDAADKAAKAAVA
Description: as §1, §2

[8] = target: YjdL Tyr113Phe (E. coli) (UniProt P39276)
[9] = target: YjdL Tyr21Phe (E. coli) (UniProt P39276)
[10] = target: YjdL Tyr25Phe (E. coli) (UniProt P39276); remark: listed apart in the source
[11] = target: YjdL Tyr58Phe (E. coli) (UniProt P39276)
[12] = target: YjdL from E. coli, wild type (E. coli) (UniProt P39276); remark: listed apart in the source
[13] = target: YjdL-Ala281Phe (E. coli) (UniProt P39276); remark: listed apart in the source
[14] = target: YjdL-Trp278Phe (E. coli) (UniProt P39276)
[15] = target: YjdL from E. coli, wild type (E. coli) (UniProt P39276); remark: listed apart in the source
[16] = target: YdgR from E. coli, wild type (E. coli MG1655) (UniProt P77304)
[17] = target: YdgR-Tyr292Ala (E. coli MG1655) (UniProt P77304)
[18] = target: YdgR-Tyr292Phe (E. coli MG1655) (UniProt P77304)
[19] = target: YdgR-Tyr38Phe (E. coli MG1655) (UniProt P77304)
[20] = target: YdgR-Tyr71Phe (E. coli MG1655) (UniProt P77304)

Row | Compound | IC50 of inhibition of β-Ala-Lys(AMCA) uptake into E. coli cells (0.2 mM substrate, 5 min, pH 6.5) [1] [mM] | IC50 of inhibition of β-Ala-Lys(AMCA) uptake into E. coli cells (0.2 mM substrate, 5 min, pH 6.5) [2] [mM] | IC50 of inhibition of β-Ala-Lys(AMCA) uptake into E. coli cells (0.2 mM substrate, 5 min, pH 6.5) [3] [mM] | increase of IC50 compared to the Ala-Lys value, WT-YjdL [4] | IC50 [4] [µM] | IC50 [5] [µM] | IC50 [6] [µM] | IC50 of inhibition of β-Ala-Lys(AMCA) uptake into E. coli cells (0.2 mM substrate, 5 min, pH 6.5) [8] [mM] | IC50 of inhibition of β-Ala-Lys(AMCA) uptake into E. coli cells (0.2 mM substrate, 5 min, pH 6.5) [9] [mM] | IC50 of inhibition of β-Ala-Lys(AMCA) uptake into E. coli cells (0.2 mM substrate, 5 min, pH 6.5) [10] [mM] | IC50 of inhibition of β-Ala-Lys(AMCA) uptake into E. coli cells (0.5 mM substrate, 15 min, pH 6.5) [11] [mM] | IC50 of inhibition of β-Ala-Lys(AMCA) uptake into E. coli cells (0.2 mM substrate, 5 min, pH 6.5) [12] [mM] | IC50 of inhibition of β-Ala-Lys(AMCA) uptake into E. coli cells (0.5 mM substrate, 15 min, pH 6.5) [12] [mM] | IC50 of inhibition of β-Ala-Lys(AMCA) uptake into E. coli cells (0.2 mM substrate, 5 min, pH 6.5) [13] [mM] | IC50 of inhibition of β-Ala-Lys(AMCA) uptake into E. coli cells (0.2 mM substrate, 5 min, pH 6.5) [14] [mM] | β-Ala-Lys(AMCA) uptake (0.5 mM) left with 50 mM competitor, E. coli cells, pH 6.5 [15] [%] | other results
1 | Met-Lys (peptide) | 0.61 | 0.53 | 0.17 | – | – | – | – | – | – | – | – | – | – | – | – | – | –
2 | NCCCC[C@H](NC(=O)[C@@H](N)Cc1ccc(O)cc1)C(=O)O [Tyr-Lys] (H-Tyr-Lys-OH) | – | – | – | approximately 2 fold | 550 ± 40 | 670 ± 80 | 30 | – | – | – | – | – | – | – | – | – | decrease of IC50 compared to Ala-Lys, Ala281Phe [6]: approximately 10 fold
3 | NCCCC[C@H](NC(=O)[C@@H](N)Cc1c[nH]c2ccccc12)C(=O)O [Trp-Lys] (H-Trp-Lys-OH) | – | – | – | approximately 2 fold | 600 ± 70 | 580 ± 60 | 90 ± 10 | – | – | – | – | – | – | – | – | – | –
4 | Tris | – | – | – | – | – | – | – | – | – | – | – | – | – | – | – | – | inhibition of β-Ala-Lys(AMCA) uptake, WT-YdgR [7]: no significant inhibition; inhibition of β-Ala-Lys(AMCA) uptake, WT-YjdL ([4]; 25 mM Tris-HCl, 50 mM MOPS pH 7.4, 0.2 mM β-Ala-Lys(AMCA), 5 min): weak
5 | Tyr-Ala (peptide) | – | – | – | – | – | – | – | 1.3 | 4.7 | 33.7 | 24.1 | 2.4 | 2.4 | 33.2 | 2.8 | < 10 | –
6 | Ala-Ala (peptide) | – | – | – | – | – | – | – | 1.9 | 4.5 | > 50 | 28.1 | 2.8 | 2.2 | > 50 | 9.9 | < 10 | IC50 of inhibition of β-Ala-Lys(AMCA) uptake into E. coli cells (0.2 mM substrate, 5 min, pH 6.5) [16]: 0.39 mM; IC50 of inhibition of β-Ala-Lys(AMCA) uptake into E. coli cells (0.5 mM substrate, 15 min, pH 6.5) [16]: 1.04 mM; IC50 of inhibition of β-Ala-Lys(AMCA) uptake into E. coli cells (0.2 mM substrate, 5 min, pH 6.5) [17]: 0.59 mM; IC50 of inhibition of β-Ala-Lys(AMCA) uptake into E. coli cells (0.2 mM substrate, 5 min, pH 6.5) [18]: 0.15 mM; IC50 of inhibition of β-Ala-Lys(AMCA) uptake into E. coli cells (0.5 mM substrate, 15 min, pH 6.5) [19]: 0.92 mM; IC50 of inhibition of β-Ala-Lys(AMCA) uptake into E. coli cells (0.2 mM substrate, 5 min, pH 6.5) [20]: 0.37 mM
7 | CSCC[C@H](N)C(=O)N[C@@H](CCCCN)C(=O)O [Met-Lys] (H-Met-Lys-OH) | – | – | – | approximately 2 fold | 530 ± 30 | 610 ± 20 | 170 ± 10 | – | – | – | – | – | – | – | – | – | –
8 | Tyr-Lys (peptide) | 0.67 | 0.55 | 0.03 | – | – | – | – | – | – | – | – | – | – | – | – | – | –
9 | Ala-Gln (peptide) | – | – | – | – | – | – | – | 1.1 | 1.1 | 36.1 | 2.5 | 0.6 | 1.9 | 21.7 | 0.9 | < 10 | –
10 | Trp-Lys (peptide) | 0.58 | 0.6 | 0.09 | – | – | – | – | – | – | – | – | – | – | – | – | – | –
